Assay results published in the supplement of paper PMC12636428.

System: Saccharomyces cerevisiae
Assay: transcriptional activation domain activity (GFP:mCherry ratio, weighted mean of sorted bins, harmonized to initial dataset scale) (arbitrary fluorescence ratio units); higher = stronger transcriptional activation
Conditions: beta-estradiol 1 µM; induction time 4 h
How it was run: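 Sorting into 8 bins by GFP:mCherry ratio followed a 4-hour hold at 30 °C after cultures were diluted 1:5 into SC with 1 uM beta-estradiol. The yeast diploids carried a GFP reporter and had barcoded protein tiles, fused to an estradiol-inducible synthetic transcription factor, integrated at URA3. Barcodes were then sequenced, and tiles with under 50 reads were removed. Activation activity is the read-weighted mean of bin median fluorescence, averaged across barcodes and linearly mapped onto the initial dataset scale.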

In order of rising “transcriptional activation domain activity” value:
1. WLLSVYILGFLAFELASVLIAIRVVAIWRRARPVLVFVVVALLTQFSFIIYLS  23300
2. WAQERGVYANVFGYPGGVAWAMLVARICQLYPNAVSAVVIRKFFQIYSQWKWP  29700
3. WATVYLWTCHYQLLVYICTLIIIETRGFLKLGYVFLITLLLLSCIPHILLHVI  30300
4. WDMTLGGTINKTGVIGVIMIVIGFYLWFFLSCAVLIAMEGCSAMLHSLRLQWV  31300
5. WLRPPRWACGRRALLLLSMGLGTVMLLILTGLLTMNQSNGAKLPVVMVFVILF  32600
6. WIDTVLIVLFSNDVQIKHKLGRLIIDEWIQIKCPTRTCLLLKLLRKKLHNSLA  33500
7. VYVDNDGLPARSQWVLMYERMGEQGGMTLAARFVMFVDFLVQMVRLLSRSPLY  34600
8. WAPLNVGLERRLQTFVVLCHTLTIPIFLTLFFFLCAIPLFWPLLIPYLIYILL  34700
9. WLAHSKKKTCDVCKHPYSFTKVYATDMPTRLPPVLLLRRVAQQSFFAMIFAVR  35900
10. WLRVRKFTVTLATFVEPGTESILCGLYGAYALTTLPFFHNIGISSTWTSFFLI  36600
11. WLAHSKKKTCDVCKHPYSFTKVYATDMPSRLPPVLLLRRVAQQSFFAMLFAVR  37900
12. VYTDLIRIIGDTKPILLDNYHNAMRRTMSVVIGFRVFYYHNEWHRAKGFIRKA  38400
13. WGLIIGLVGLNAALIYIGWRYYEVYYFLLVLLSSNTILQTFMCFCIMLHWFCT  40400
14. WETIGTILYLFYVFTFLRLRFFLLLFYLYELTTMISLTIYIILYTLLFYFSCY  41200
15. WLHKLPRATWAYPLYGIYYLLTNPALLSPLLSRIIPLLILSIFVLTFTFTFLY  43800
16. WLLQYMMLLGTLRRQSDKLVVKVGWYMANYLVPGIYVFQPRIVMKVLLLILRQ  44500
17. WHVAYPLVATGLCVAPQEFFLKHWLAFLREKGTRSFVLNGMLRLLWTYLYRCQ  45800
18. WLILIRIINPIIMYFFVSCFYSLLSLAFQVPFNRFYGSSGFVIYWMMSWMAMC  47100
19. WLLCQVPTRNLGVLVFDSSKRYHLVHPDSPTGEQRHTQFVIVLFIVAFIRGVA  47700
20. WGTTFRDEGSRVRVLMRRLARMMRLGGRTPCQSDHISNVHFSAPADWQSTWGT  48000
21. WLAHSKKKTCDVCKHPYSFTKVYATDMPTRLPPVLLLRRVAQQSFFAMLFAVR  48100
22. WLLTFFTVDFLPNRDLRILLANWLNTLIHDPILKKHTDGLGIVRRLVKVAKEC  48400
23. WKPDIYTCVMRMLLDRLHSALGSLHARSIIRKIRILVALAGNVAYRGYPLQMT  48900
24. WGRKGRGKSPLYDFDVNEFDPQVLFSTGTRTVEFMDDQNQPSSASAFLSTARP  49300
25. WLMYYIHATGDTKVSLPFNPSRVIKINMVLLSHLVAWINYLPLVVSYVHWRYW  51000
26. WIVTHSHFIPTAEAGTTGEGMGEGEDRDPDTVRLAVRSLTICMRSANIAMLVG  53600
27. WLLFLQEYGTITLTLLQSLEYWISNIDLTDESKSQLSKQGRACMYHLIVLTLR  53700
28. WCVVLCMVLILPRLFYTILQMNDYNISPFNPNVNALYTSLLGYLPLLAVFIVM  53800
29. WLSHSKKKTCDVCKHPYSFTKVYAEDMPSRLPLVLLLRKLIEQVFYTALFCIR  54100
30. WLPNWLVPVMTAFSWMTWIAPKHRDLNILTGFNNGMGLLNFWPTWDWNVLLFT  54200
31. WFAKFVVRLVYCLAWVRGQLLRRSSPIQTMMLALRCPHVLPWIDAGTPRLYIY  54700
32. WLSHSKKKSCDVCKHPYSFTKVYAENMPPRLPVFLLLRKVVEQAFFTIVFSIR  55100
33. WHTDLGIPSFGWTLLHELEGLLGRIEANWMEEVTVRTIVLLTSRLLSAVRDHD  55200
34. WEPPLYDSVGNHNHAGTMESHPHTNIHEELKEFLSGDLIEAEDNAKLMFGDDN  55300
35. WARNARKNKSTEEASAQEQRRGAQVIVIHPGSRFLRIGKASEVSPVTVLNVVA  55600
36. VYTVMILSTIFGICYVPFGVFICDSLKAYPGEVTNCSHQMQNLATIFFILFSV  57000
37. VYYFWVRIFVFSFRSTCFCIFLFYYLYLFFLFIFLYLTSSFSSFHHLSLLLVV  57800
38. WHIRCVLLLVAFLHICYQVSYCACGLILVCLNFIFVRQPGGLEMLLTLKTAFY  57800
39. VYRRELDQNKGGLILIVRRTGNEVHCGVYITFGFMKQWKLYVKSLISITGQWH  58500
40. VYSYKKRMWHYFLFDLCYYVNIINLVYIWILPQSAWLFVACYCLSHGSVASAV  58700
41. WERIREKASILALAYRLGVLLFALHFLFCLSQPPRFARLFWLSFSLLVPSTFF  59000
42. WLSDENDGASHINVNKDSSSVLSASSSTWFEPLENIISSASSSSIGSPIEDQF  60800
43. WIIPTPFGSHAFHPVDGYFQSVPYHLFIFIFPLHRVLYLTLFVLVNFWSIFIH  61100
44. WIQCTIPGYVSNFAYGLASGFTVTLNTAVLMEIVFHSKSYRILILSLFTTLYV  61400
45. WDDILTPADNQHRPSLTNQFLSPRSNYDGTTRSSGIDSNYSDTESNYHTPYLY  61600
46. WIPFTLSIIVVEIPYLLFFSTSLLCGIYWTAGLSNTPDAVGYFYLMIFFFIFW  61600
47. WDLLLGIQMSWDAVLDLWPRLWAWFEFLDTYSDILSSLLVYLSDADFSLIWVL  62800
48. WLPFPESLGSSYRMPGIEPYVDFVMGRILAKKLPELLDSCQILMLRWKCLCFI  63200
49. WKATKYLIGLWIQCFRDRGLIGPVGYRGHVHCVVRFCLCLIPKSHWQTIIVVT  63500
50. WLNGCFLLVGHIIFQLVMCYQLAQIIRGIVQMYGHLWISNDWHCLWITWLILF  63600
51. WFRDMRFPYVPRAFSRLLKNLLVAVYVSLFNSCIFWFTSSRLHPQRRFIARYL  64800
52. WIVALAIIVSDYYGVVKGGVAYGLLASSNTSMAVFIFVWHLGGIWMITMLACM  65100
53. WDWARRYHCLAWGGEVSLLSFLPLLPVCLLSWLCRVSPIKWALVAVFFFWLLG  65900
54. WLIKPEQNNGTWVADVLWPKLNLDLQWIASHWNQSSWDLWWPPVWGVLTGLPL  67700
55. WLFCFICYPLPLHPISYQIAPPFYSIFFVILLTIVFFLLLFLFVSSFLYLRLG  70000
56. WDGGPTSKLTHVLLTYRQSILVTVYSHLLLLDHSSQVWWRWMNIFFTLVIWSI  71000
57. WLAHSKKKDCDVCKHPYSFNKVYSPDMPARLPPVLLLRHLAKQLFFTVLFSIR  76900
58. WIKWTFLFARYFPLLAGLCGRVIDSIVLYRNPIPIPLNALRIWYICQVLILHL  78200
59. WGFRVMSQLPTFWYRTEYFWIDYPHWDMKPELKRYYLMQMAYWLQQLIVLVLG  92400
60. VYPENYETASVNTERDMELLVGHFDFMAKEAFLADSISLCSTEEELERRLDTP  102000
61. WKKTIQNKIKDSLTLSSKEKELLHLIEHGAEQTTENSNLFYDIFEEIIDSLPS  112000
